The values below come from article PMC11702068, “NEK8 promotes the progression of gastric cancer by reprogramming asparagine metabolism” (Molecular Medicine, 2025).

The target in the experiment is T1, His-NEK8 (UniProt Q86SG6 1-692).
T1 construct: NEK8 (NIMA-related kinase 8); also called His-tagged NEK8; source: E. coli BL21, purified (Ni-NTA agarose)
T1 sequence (looked up): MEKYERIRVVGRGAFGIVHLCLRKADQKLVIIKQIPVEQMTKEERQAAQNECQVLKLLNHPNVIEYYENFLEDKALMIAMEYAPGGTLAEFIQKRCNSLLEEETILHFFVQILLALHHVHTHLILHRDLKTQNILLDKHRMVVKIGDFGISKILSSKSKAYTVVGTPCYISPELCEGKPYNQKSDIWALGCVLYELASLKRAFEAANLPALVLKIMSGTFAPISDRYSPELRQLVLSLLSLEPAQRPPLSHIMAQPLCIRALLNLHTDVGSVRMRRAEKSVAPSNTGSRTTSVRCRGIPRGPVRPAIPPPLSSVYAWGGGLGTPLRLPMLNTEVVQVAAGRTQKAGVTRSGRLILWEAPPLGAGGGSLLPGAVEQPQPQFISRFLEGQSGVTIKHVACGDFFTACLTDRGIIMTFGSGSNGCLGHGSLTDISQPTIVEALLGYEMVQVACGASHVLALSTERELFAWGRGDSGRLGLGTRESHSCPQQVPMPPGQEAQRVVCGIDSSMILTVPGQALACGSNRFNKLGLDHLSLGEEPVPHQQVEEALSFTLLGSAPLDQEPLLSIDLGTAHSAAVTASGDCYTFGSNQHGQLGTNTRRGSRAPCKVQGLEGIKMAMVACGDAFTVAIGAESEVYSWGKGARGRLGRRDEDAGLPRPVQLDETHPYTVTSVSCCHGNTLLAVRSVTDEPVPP
The experiment is described as follows: pull-down; GST affinity isolation: GST-tagged NEK8 or ASNS proteins on glutathione-Sepharose 4B beads incubated with His-tagged ASNS or NEK8 at 4 °C for five hours; wash with GST binding buffer (2 mM EDTA, 50 mM NaF, 100 mM NaCl, 1% NP-40); immunoblotting. The conditions noted are these: both partners purified.

B1: GST-ASNS full-length (enzyme, UniProt P08243 1-561, looked up)
chain: MCGIWALFGSDDCLSVQCLSAMKIAHRGPDAFRFENVNGYTNCCFGFHRLAVVDPLFGMQPIRVKKYPYLWLCYNGEIYNHKKMQQHFEFEYQTKVDGEIILHLYDKGGIEQTICMLDGVFAFVLLDTANKKVFLGRDTYGVRPLFKAMTEDGFLAVCSEAKGLVTLKHSATPFLKVEPFLPGHYEVLDLKPNGKVASVEMVKYHHCRDVPLHALYDNVEKLFPGFEIETVKNNLRILFNNAVKKRLMTDRRIGCLLSGGLDSSLVAATLLKQLKEAQVQYPLQTFAIGMEDSPDLLAARKVADHIGSEHYEVLFNSEEGIQALDEVIFSLETYDITTVRASVGMYLISKYIRKNTDSVVIFSGEGSDELTQGYIYFHKAPSPEKAEEESERLLRELYLFDVLRADRTTAAHGLELRVPFLDHRFSSYYLSLPPEMRIPKNGIEKHLLRETFEDSNLIPKEILWRPKEAFSDGITSVKNSWFKILQEYVEHQVDDAMMANAAQKFPFNTPKTKEGYYYRQVFERHYPGRADWLSHYWMPKWINATDPSARTLTHYKSAVKA
notes: asparagine synthetase (ASNS), full-length (FL); also called FL
As to B1, the binding result is reported as “binds”.
